Measurements from patent publication US20220411487A1 (Regeneron, published 2022).
Residue numbers refer to the chain shown, from its start. In names and notes the source's numbering stands.

T1: full length cynomolgous monkey TMPRSS6 on HEK293 cells (HEK293/mfTMPRSS6) (cynomolgous monkey/Macaca fascicularis, UniProt Q8IU80 10-811 (human entry))
T1 chain: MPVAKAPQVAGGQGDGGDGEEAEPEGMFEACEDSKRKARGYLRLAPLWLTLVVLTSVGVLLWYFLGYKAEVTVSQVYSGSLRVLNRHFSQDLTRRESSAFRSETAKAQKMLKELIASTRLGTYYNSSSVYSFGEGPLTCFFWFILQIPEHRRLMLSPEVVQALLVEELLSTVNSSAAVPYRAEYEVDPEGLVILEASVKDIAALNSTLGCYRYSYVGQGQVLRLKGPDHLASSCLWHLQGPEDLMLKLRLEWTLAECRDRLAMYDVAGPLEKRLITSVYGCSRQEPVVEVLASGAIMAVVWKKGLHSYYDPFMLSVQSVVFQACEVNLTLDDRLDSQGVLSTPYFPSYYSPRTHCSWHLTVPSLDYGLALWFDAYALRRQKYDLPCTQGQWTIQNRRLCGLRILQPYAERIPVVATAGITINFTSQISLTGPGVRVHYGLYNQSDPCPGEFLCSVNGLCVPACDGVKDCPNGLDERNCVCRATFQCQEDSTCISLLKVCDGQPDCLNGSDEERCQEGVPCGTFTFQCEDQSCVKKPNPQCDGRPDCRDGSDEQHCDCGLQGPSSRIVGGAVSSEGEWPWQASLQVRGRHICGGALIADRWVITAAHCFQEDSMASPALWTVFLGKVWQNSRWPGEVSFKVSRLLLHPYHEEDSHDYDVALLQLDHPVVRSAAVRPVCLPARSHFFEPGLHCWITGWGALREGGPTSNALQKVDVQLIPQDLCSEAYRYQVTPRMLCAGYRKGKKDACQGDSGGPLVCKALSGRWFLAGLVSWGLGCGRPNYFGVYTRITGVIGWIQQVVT

T2: full length mouse TMPRSS6 on HEK293 cells (HEK293/mTMPRSS6) (mouse, UniProt Q9DBI0 1-811)
T2 construct: line sorted for high expression
T2 sequence: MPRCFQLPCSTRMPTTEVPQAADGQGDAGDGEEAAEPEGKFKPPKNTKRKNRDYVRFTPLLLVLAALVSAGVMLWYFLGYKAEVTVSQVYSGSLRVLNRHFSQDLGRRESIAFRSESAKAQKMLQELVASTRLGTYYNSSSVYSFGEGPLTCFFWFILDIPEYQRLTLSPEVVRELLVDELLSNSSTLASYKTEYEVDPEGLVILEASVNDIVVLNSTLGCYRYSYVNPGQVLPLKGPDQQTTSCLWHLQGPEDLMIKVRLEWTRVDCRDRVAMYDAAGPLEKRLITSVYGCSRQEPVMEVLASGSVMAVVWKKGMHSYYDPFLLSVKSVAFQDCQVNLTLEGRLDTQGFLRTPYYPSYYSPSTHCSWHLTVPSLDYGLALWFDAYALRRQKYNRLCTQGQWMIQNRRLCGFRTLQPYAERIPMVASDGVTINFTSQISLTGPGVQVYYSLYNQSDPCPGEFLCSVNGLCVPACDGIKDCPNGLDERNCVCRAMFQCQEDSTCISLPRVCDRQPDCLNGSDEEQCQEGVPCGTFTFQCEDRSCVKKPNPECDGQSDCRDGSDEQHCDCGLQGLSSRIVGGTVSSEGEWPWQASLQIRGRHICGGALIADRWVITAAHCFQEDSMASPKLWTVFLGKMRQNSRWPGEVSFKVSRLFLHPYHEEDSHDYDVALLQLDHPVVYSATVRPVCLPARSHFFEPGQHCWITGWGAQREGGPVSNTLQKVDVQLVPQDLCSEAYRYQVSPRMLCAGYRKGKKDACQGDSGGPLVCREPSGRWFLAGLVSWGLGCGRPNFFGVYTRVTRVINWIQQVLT

T3: extracellular domain of cynomolgous monkey TMPRSS6 (V673M) with N-terminal 8xHistidine, CHO conditioned media (cynomolgous monkey, UniProt Q8IU80 77-811 (human entry))
T3 chain: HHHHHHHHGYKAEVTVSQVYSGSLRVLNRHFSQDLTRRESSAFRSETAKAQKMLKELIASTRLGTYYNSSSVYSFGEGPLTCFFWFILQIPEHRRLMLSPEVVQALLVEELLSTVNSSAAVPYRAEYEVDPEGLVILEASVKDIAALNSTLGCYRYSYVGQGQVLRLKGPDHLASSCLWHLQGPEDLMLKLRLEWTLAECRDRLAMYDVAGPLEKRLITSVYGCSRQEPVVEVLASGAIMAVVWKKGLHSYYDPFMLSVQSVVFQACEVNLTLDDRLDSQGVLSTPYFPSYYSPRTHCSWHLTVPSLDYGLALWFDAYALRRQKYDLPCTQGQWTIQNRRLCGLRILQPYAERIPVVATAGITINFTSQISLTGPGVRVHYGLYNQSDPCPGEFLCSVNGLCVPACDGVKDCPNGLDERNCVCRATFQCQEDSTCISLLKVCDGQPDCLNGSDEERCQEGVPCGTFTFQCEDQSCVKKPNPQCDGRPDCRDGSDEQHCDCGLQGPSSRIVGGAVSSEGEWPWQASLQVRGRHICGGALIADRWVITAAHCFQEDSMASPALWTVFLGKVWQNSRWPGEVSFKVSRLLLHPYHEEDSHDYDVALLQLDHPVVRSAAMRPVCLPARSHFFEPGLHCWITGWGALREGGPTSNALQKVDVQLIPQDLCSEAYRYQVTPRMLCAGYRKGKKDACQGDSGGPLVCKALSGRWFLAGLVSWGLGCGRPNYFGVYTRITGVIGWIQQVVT

B1: REGN7977 (antibody, V domains shown)
VH: EVQLVESGGGLVKPGGSLRVSCAASGVTFSNVWMSWVRQVPGKGLEWVGRIKSKTDGGTTDYAAPVKGRFTISKDDSKNTLFLQMNSLKTEDTAVYYCTTETGDFWSGYYPRFQHWGQGTLVTVSS
VL: DIQMTQSPSSLSASVGDRVTITCRASQYISTYLNWYQQKPGKAPSLLIYAASSLQSGVPSRFSGSGSGTDFTLTISSLQPEDFASYSCQQSYSTPPYTFGQGTKLEIKR
notes: fully human; human IgG4 Fc with hinge S108P; also called mAb41465
B2: REGN7969 (antibody, human IgG4 S228P, kappa, V domains shown)
VH: QVQLVESGGGVVQPGRSLRLSCAASGFTFNNYGMHWVRQAPGKGLEWVAIISYDGSNEYYSDSVKGRFTISRDNSKNTLYLQMNSLRAEDTAVYYCARDQDYGGNLFHYWGQGTLVTVSS
VL: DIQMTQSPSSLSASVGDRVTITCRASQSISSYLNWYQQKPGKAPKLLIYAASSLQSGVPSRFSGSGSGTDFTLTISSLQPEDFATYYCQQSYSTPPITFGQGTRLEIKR
notes: fully human; human IgG4 Fc with hinge S108P; also called mAb37746
B3: REGN7971 (antibody, human IgG4 S228P, kappa, V domains shown)
VH: B2 VH with N30S, N31T, E58D, S61L, S85N, R98K, D101G, H108A, Y109S
VL: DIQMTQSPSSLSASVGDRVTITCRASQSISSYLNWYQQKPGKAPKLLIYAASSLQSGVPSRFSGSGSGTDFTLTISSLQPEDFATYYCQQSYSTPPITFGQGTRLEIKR
notes: fully human; human IgG4 Fc with hinge S108P; also called mAb37763
B4: REGN8023 (antibody, human IgG4 S228P, kappa, V domains shown)
VH: EVQLVESGGGLVKPGGSLRISCAASGFIFVDYAMHWVRQAPGKGLEWVSGISWNSGSIGYADSVKGRFTISRDNAKKSLYLQMSGLRPEDTALYYCVKSGFYYVRSYFDNWGQGTLVTVSS
VL: DIVMTQSPLSLPVTPGEPASISCRSSQSLLDSDDGNTYLDWYLRKPGQSPQLLIYTLSYRASGVPDRFSGSGSGTDFTLKISRVEADDVGVYYCMQRIEFPLTFGGGTKVEIKR
notes: fully human; human IgG4 Fc with hinge S108P; also called mAb37699
B5: REGN7999 (antibody, human IgG4 S228P, kappa, V domains shown)
VH: EVQLVESGGGLVQPGGSLRLSCAASGFTFSSYAMTWVRQAPGKGLEWVSAISGSDTSTYYADSVKGRFTISRDNSKNTLFLQMNSLRAEDTAVYYCAKHQDYDFSYYYSAMDVWGQGTTVTVSS
VL: DIQMTQSPSSLSASVGDRVIITCRASQDFNSWLAWYQQKPGKAPKLLIYAASSLQSGVPSRFSGSGSGTDFTLTISSLQPEDFATYYCQQTDSFPFTFGPGTKVDIKR
notes: fully human; human IgG4 Fc with hinge S108P; also called mAb41450
B6: REGN7974 (antibody, human IgG4 S228P, kappa, V domains shown)
VH: EVQLVESGGGLVQPGRSLRLSCIASGFNFGDYGMSWVRQAPGKGLEWVGFIRSKAYGGTTEYAASVKGRFTISRDDSKSIAYLQMNSLKTEDAAMYYCSRDYYDILTGYYGDYWGQGTLVTVSS
VL: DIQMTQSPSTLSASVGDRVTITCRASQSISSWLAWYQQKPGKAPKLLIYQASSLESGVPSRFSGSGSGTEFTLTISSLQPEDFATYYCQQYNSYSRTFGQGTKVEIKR
notes: fully human; human IgG4 Fc with hinge S108P; also called mAb41422

Biological target: T1, full length cynomolgous monkey TMPRSS6 …
Experiment: flow cytometry, HEK293 cells expressing target
Description: (§1) To assess the binding of anti-TMPRSS6 antibodies of the present disclosure to the receptor expressed on the cell surface, antibodies (including an IgG subclass control) were serially diluted in assay buffer (PBS without Ca⁺⁺ and Mg⁺⁺ containing 2% FBS) from 375 nM to 22.9 pM (plus a sample containing assay buffer alone without test molecule) and incubated with 0.5×10⁶ cells/well at 4° C. for 30 minutes in assay buffer. […] Cells were fixed using BD CytoFix™ (Becton Dickinson, #554655) and analyzed on either the IQue® or IQue®Plus Flow Cytometers (Intellicyt®). Unstained and secondary antibody alone controls were also tested for all cell lines. The results were analyzed using ForeCyt® (IntelliCyt®) software to determine the geometric means of fluorescence for viable cells and binding ratio was calculated by normalizing the geometric mean value of the test condition by the geometric mean value of the corresponding unstained cells.

| Binder | EC50 | Max. Fold Binding |
| --- | --- | --- |
| B1 | 2.4 nM | 78 fold over unstained control |
| B2 | 1.2 nM | 50 fold over unstained control |
| B3 | 1.5 nM | 75 fold over unstained control |
| B4 | 0.94 nM | 52 fold over unstained control |
| B5 | 2 nM | 79 fold over unstained control |
| B6 | 3.6 nM | 50 fold over unstained control |

Biological target: T2, full length mouse TMPRSS6 on HEK293 …
Experiment: flow cytometry, HEK293 cells expressing target
Description: as §1

| Binder | EC50 | Max. Fold Binding |
| --- | --- | --- |
| B1 | 9.1 nM | 125 fold over unstained control |
| B2 |  | 1 fold over unstained control |
| B3 |  | 1 fold over unstained control |
| B4 | 0.84 nM | 296 fold over unstained control |
| B5 | 4.5 nM | 421 fold over unstained control |
| B6 |  | 1 fold over unstained control |

Biological target: extracellular domain of Human TMPRSS6 with N-terminal 8xHistidine, CHO conditioned media (human, UniProt Q8IU80 68-802, limits assumed)
Experiment: cell-based or functional assay

Chain of extracellular domain of Human TMPRSS6 with N-terminal 8xHistidine, CHO conditioned media (Q8IU80 other isoform, or with tags, fused parts or gaps limits assumed): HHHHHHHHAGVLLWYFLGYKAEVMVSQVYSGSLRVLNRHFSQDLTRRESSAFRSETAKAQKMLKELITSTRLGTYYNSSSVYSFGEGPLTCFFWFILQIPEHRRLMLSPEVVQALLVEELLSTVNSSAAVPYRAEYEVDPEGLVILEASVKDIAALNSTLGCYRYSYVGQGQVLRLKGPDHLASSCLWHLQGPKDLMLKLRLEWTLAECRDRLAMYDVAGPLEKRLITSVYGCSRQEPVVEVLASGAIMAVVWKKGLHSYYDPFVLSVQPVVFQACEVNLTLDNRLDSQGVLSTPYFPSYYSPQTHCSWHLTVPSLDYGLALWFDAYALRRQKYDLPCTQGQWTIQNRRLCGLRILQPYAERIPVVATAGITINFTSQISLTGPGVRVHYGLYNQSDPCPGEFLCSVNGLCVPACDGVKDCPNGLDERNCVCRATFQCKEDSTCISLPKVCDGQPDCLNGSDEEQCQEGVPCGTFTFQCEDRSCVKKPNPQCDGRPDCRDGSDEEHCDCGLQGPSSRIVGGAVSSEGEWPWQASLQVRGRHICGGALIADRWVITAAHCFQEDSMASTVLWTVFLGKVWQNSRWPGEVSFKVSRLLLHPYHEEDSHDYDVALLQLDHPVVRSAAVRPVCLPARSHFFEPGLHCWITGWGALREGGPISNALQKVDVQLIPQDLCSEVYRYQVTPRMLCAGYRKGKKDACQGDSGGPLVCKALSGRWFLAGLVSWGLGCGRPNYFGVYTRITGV

| Binder | % inhibition of enzymatic activity, CM bioassay | IC50, CM bioassay |
| --- | --- | --- |
| B1 | 94% | 23 nM |
| B2 | 71% | > 10 nM |
| B3 | 65% | > 10 nM |
| B4 | 98% | 0.71 nM |
| B5 | 98% | 3 nM |
| B6 | 85% | 400 nM |

Biological target: T3, extracellular domain of cynomolgous …
Experiment: cell-based or functional assay

| Binder | % inhibition of enzymatic activity, CM bioassay | IC50, CM bioassay |
| --- | --- | --- |
| B1 | 89% | 50 nM |
| B2 | 66% | > 50 nM |
| B3 | 68% | > 50 nM |
| B4 | 98% | 0.74 nM |
| B5 | 98% | 1.7 nM |
| B6 | 69% | > 50 nM |
